Test results reported in the nanobody polyreactivity screen of Harvey et al. (2022).

Experiment: yeast display, Sf9 membrane polyspecificity reagent, FACS + sequencing; frameworks hold sequencing errors
Summary of the method: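 After 36–48 hours of galactose induction, yeast (Saccharomyces cerevisiae BJ5465) displaying a synthetic nanobody library were stained at 4 °C for 1 hour with 10% biotinylated, detergent-solubilized Sf9 membrane reagent. Streptavidin microbeads enriched the stained cells before FACS sorting into low and high (top ~1%) gates on anti-HA and streptavidin fluorescence. Each clone's polyreactivity label reflects its gate of origin.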

Sequence	polyreactivity (PSR sort gate)
QVQLVESGGGSVQAGGSLRLSCAASGIIFWYYTMGWYRQAPGKERELVAAISWSSGITYYADSVKGRFTISRDNAKNTVYLQMNSLKPEDTAVYYCAAAVSPHSEGFGEYNYWGQGTQVTVSS	low polyreactivity
QVQLVESGGGLVQAGGSLRLSCAASGSTFYPYAMGWYRQAPGKERELVAAISSGGSTSYADSVKGRFTISRENAKNTVYLQMNSLKPEDTAVYYCNASSPVAVPVYDYDYWGQGTQVTVSS	low polyreactivity
QVQLVESGGGLVQAGGSLRLSCAASGSTFVYNAMGWYRQAPGKERELVAAISRGGGITYYADSVKGRFTISRDNAKNTVYLQMNSLKPEDTAVYYCQYLSRGLNTYRSSQGDDDYWGQGTQVTVSS	high polyreactivity
QVQLVESGGGLVQAGGSLRLSCAASGSTFQWYAMGWYRQAPGKERELVAAITKSGGSTYYADSVKGRFTISRDNAKNTVYLQMNSLKPEDTAVYYCAAGFWYYATEYDYWGQGTQVTVSS	low polyreactivity
QVQHVESGGGLVQAGGSLRLSCAASGRTFQYNTMGWYRQAPGKERELVAAISWGGGSTYYADSVKGRFTISRDNAKNTVYLQMNSLKPEDTAVYYCAATHYRGKGYYYWGQGTQLTVSS	low polyreactivity
QVQLVESGGGLVQAGGSLRLICAASGSIFTVYAMGWYRQAPGKERELVADIDYGGTYYADSVKGRFTISRDNAKNTVYLQMNSLKPEDTAVYYCAALAALDYGQLYLDDDDYWGQGTQVTVSS	low polyreactivity
QVQLVESGGGLVQAGGSLRLSCAASGSIFTKYAMGWYRPAPGKERELVAAISYSGGTRTYYADSVKGRFTSSRDNAKNTVYLQMNSLKPEDTAVYYCAARRYTRRANPAYPYEYWGQGTQVTVSS	high polyreactivity
QVQLVESGGGLVQAGGSLRLSCAASGRTLQSYAMGWYRQAPGKERELVAAITSTGTTYYADSVKGRFTISRDNAKNTVYLQMNSLKPEDTAVYYCAAGGSIVLGHYHYVKMYYWGQGTQVTVSS	high polyreactivity
QVQLVESGGGLVQAGGSLRLSCAASGSSFTRYAMGWYRQAPGKERELVATINFSGDRTYYADSVKGRFTISRDNAKNTVYLQMNSLKPEDTAVYYCNNYSYQWPYRRFDYWGQGTLVTVSS	high polyreactivity
QVQLVESGGGLVQAGGSLRLSCAASGSILRRNTMGCYRQAPGKERELVAAINKTGGSTYYADSVKGRFTISRDNAKNTVYLQMNSLKPEDTAVYYCNRDKYYGTKYDYWGQGTQVTVSS	low polyreactivity
QVQLVESGGGLVQAGGSLRLSCAASGRTFVYYAMVWSRQAPGKEREFVAAISRSGGRTSYADSVKGRFTISRDNAKNTVYLQMNSLKPEDTAVYYCAAENRTQPTSREYYWGQGNQVTVSS	high polyreactivity
QVQLVQSGGGLVQAGGSLRLSCAASGRISIIYAMVWYRQAPGKERELVARISGSGGSTNYADSVKGRFTISRDNAKNTVYLQMNSLKPEDTAVYYCAARHYAVRRSRYPGKLGYYWVQGTQVTVSS	high polyreactivity
QVQLVESGGGLVQAGGILRLSCAASGRTVVSYAMGWYRQQPGKGRELVAVITGGTGNTYYADSVKGRFTISRDNEKNTVYLQMNSLKREDTAVYYCNARGCYYKFRYPLYYWGQGTQVTVSS	high polyreactivity
QVQHVESGGGLVQAGGSLRLSCAASGRTSIPYAMGRYRQAPGKEWQLVAAISYSVGRTYYADSVKGRFTISRDNAKNTVYLQMNSLKPEDTAVYYCAAEYNGVVRDYDYWGQGTQVTVSS	low polyreactivity
QVQLVESGGGLVQAGGSLRLSCAASGRTFRDYAMGWYRQAPGKERELVAAINWSGGTTSYADSVKGRFTISRDNAKNTVYLQMNSLKPEDTAVYYCAVPYLYKYSRYDYWGQGTQVTVSS	high polyreactivity
QVQLEESGGGLVQAGGSLRLSCAASGSTFRDYAMGWYRQAPGKQRELVAAITSGGSTNYADSVKGRFTISRDNAKNTVYLQMNSLKPEDTAVYYCNARYAGWYTPWGRQSVYSDDYWGQGTQVTVSS	low polyreactivity
QVQLVESGGGLVQAGGSLRLSCAASGRTFGGYALGWYRQAPGKARELVAAITWSDTSTYYADSVKGRFRFSRDNAKNTVYLQMNSLKPEDTAVYYCAAEQWYWWDDYWGKGTQVTVSS	high polyreactivity
QVQLVESGGGLVQAGGSLRLSCAASGSIFINYVMGWYRQAPGKERELVAAISSIGDSTYYADSVKGRFTISRDNAKNTVYLQMNSLKPEDTAVYYCNAEIPSLKASPLYRYDYWGQGTKVTVSS	high polyreactivity
QVQLVESGGGLVQAGGRLRLSCAASGTTFWNNAMGWYRQAPGKERELVPGISRSGGSTYYADSVKGRFTISRDNAKNTVYLQMNSLKPEDTAVYYCNKVNYAKRNYWGQGTQVTVSS	low polyreactivity
QVQLVESGGGLVQAGGSLRLSCAASGLIFPLYAMGWYRQAPGKERELVAAISRTGVSTDYADSVKGRFTISRDNAKNTVYLQMNSLKPEDTAVYYCNKVRTPRRRYDYWGQGTQVTVSS	low polyreactivity
QVQLVESGGGLVQAGGRLRLSCAASGITFPGNVMGWSRHAPGKERELVAAISSTGSTNYADSVKGRFTISRDNAKNTVYLQMNSLKPEDTAVYYCAARFWYDYRHYDYWGQGTQVTVSS	low polyreactivity
QVQLVESGGGLVQAGGSLRISSAASGLTFYRYAIGWYRQAPGKERELVAAIRSNVVTTYYADSVKGRFTISRDNAKNTVYLKMNSLKPEDTAVYYCAARFGRSAPPGYDYWGQGTQVTVSS	high polyreactivity

Sequence	polyreactivity (PSR sort gate)
QDQLVESGGGLVQAGGSLRLSCAASASIFNVNTMGWYRQAPGKERELVAAISYSGGSTYYADSVKGRFTISRDIAKNTVYLQMISLKPEDTAFYYCNVSPTTTVDGGGYDSWGQGTQVTVSS	low polyreactivity
QVQLVESGGGLVQAGGSLRLSCAASGSIFDAYMGWYRQAPGKERELVAGITRSGGSTYYADSVKGRFTISRDNAKNSVYLQMNSLKPEDTAVYYCAADYSSDGDYWGQGTQVTVSS	low polyreactivity
QVQLVESGGGLVQAGGSLRLSCAASGRTFVPYAMGWYRQAPGKERELVAAINSGGSTYYADSVKGRFSISRDNAKNTVYLQMNSLKPEDTAVYYCAAEYWNSRFSYAYGYWGQGTQVTVSS	high polyreactivity
QVQLVESGGGLVQAVGSLRLSCAASGSTFHWYDMGWYRQAPGKERELVPGINSSGDGTYYADSVKGRFTISRDNAKNTVYLQMNSLKPEDTAVYDCAAPWWYYGVPYQTNKYDYWGQGTQVTLSS	low polyreactivity
QVQLVDSGGGLVQAGGTLSLSCAASGRTFWWYARGWSRQAPGTERELVDAITNFGSTNYADSVKGRFSISRDNAKNTVYLQKNSLKPEDTAVYYCAALTRCWYGGFYQYYYLGQGTQVTVSS	high polyreactivity
QVQLVESGGGLVQAGGSLRLSCADSGFTCYYYTMGWNRPAPWKGRELVAAISWSGGSTYYADSVKGRFTISRDNAKNTVYLQMNSLKPEDPAVYYCNKAYPGRTYDYWGQGSQVTVSS	high polyreactivity
QVQLVESGGGLVQAGGSLRLSCAASGSTFFRYAMGWYRQAPGKEREFVAAITSSGGNTYYADSVKGRFTISRDNAKNTVYLQMNSLKPEDTAVYYCAAVWYSPYVKYNYWGQGTQVTVSS	low polyreactivity
QVQLVESGGGLVQAGGSLRISCAASGRTFYSYAMGWYRQAPGKERELVAAITWRASTYYADSVKGRFTISRDNAKNTVYLQMNSLKPEDTAVYYCAVRDYRPRYYTFLYNSPYDYWGQGTQVTVSS	high polyreactivity
QVQLVESGGGLVQAGGSLRFSCAYSGRTFFGYAMGWYRQAPGKERELVAAITSAGGRTYYADSVKGRYTISRDNAKNTVYLQMNSLKPEYTAVYYCAATRWYYGLSAFDSWGQGTQVTVSS	high polyreactivity
QVHLVESGGGLVQAGGSLRLSCAASGSTFGGNAMGWYRQPPGKERELVAAISSGDSTTYADSVKGRFTISRDNAKNTVYLQMNSLKPEDTAVYYCNADYTDTLTGYFSDEVYHGMDYWGQGTQVTVSS	low polyreactivity
QVQLVESGGGLVQAGGSLRLSCAASGNTFTAYVMGWYRQAPGKERELVAGISGRGSSTYYADSVKGRFTISRDNAKNTVYLQMNSLKQEDTAVYYCAAVRTLRTWVYGRYDYWGQGTQVTVSS	high polyreactivity
QVQLVESGGGLVQAGGSLRLSSAASGRTLAGYAMGWYRQAPGKERELVAAISRSGGRTYYADSVKGRFTISRDNAKNSVYLQMNSLKPEDTAVYYCAADTRIEVYYWGQGTQVTVSS	high polyreactivity
QVQLVESGGGLVQAGGSLRLSCAASGITFVFNAMGWYRQAPGKERELVASITIGGNTYYADSVKGRFTISRDNAKNTVYLQMNSLKPEDSAVYYCAADIARSVRFYYWGQGTQVTVSS	low polyreactivity
QVQLVESGGGLVQAGGSLRLSCAASGSTFYGYAMGWYRQAPGKERELVAAITVRGGSTYYADSVKGRFTISRDNAKNTVYLQMNSLKPEDTAVYYCAKGRLRRTYYRNKFSFDYWGQGTQVTVSS	high polyreactivity
QVQLVESGGGLVQAGGSLRLSCAASGIFFPNAMGCYRQAPGKERELVAAISWTGGSTFYADSVKGRFTISRDNAKNTVYLQMNSLKPEDTAVYYCAAEEYYAGWTYDYWGQGTQVTVSS	high polyreactivity
QVQLVESGGGLVQAGGSLRLSCAASGRTFIANAMGWSRQAPGKERELVAAISWSGGSTYYADSVKGRFTISRDNAKNTVYLQMNSLKPEDTAVYYCTAKRFRTGFDYWGQGTQVTVSS	low polyreactivity
QVQLQESGGGLVQAGGSLRLSCSASGNISVTGVMGWYRQAPGKERELVPSIGIGGTTYYADSVKGRFSISRDNATITVYLQMNSLKPQDTAVYYCAARYLYYAYSYWGQGTQVTVSS	low polyreactivity
QVQLVESGGGLVQAGGSLRLSCAASGRIFYGYTMGWYRPAPGKERELVAAISRYGGSTYYADSVKGRFTISRDNAKKTVYLQMNSLKPEDTAVYYCNAVYSRGYVIKPYDYWGQGTQVTVSS	high polyreactivity
QVQLVESGGGLVQAGGSLRLRCAASGRIFGYNDMGWYRQAPGKERELVAAINWTGGSTYYADSVKARFTISRDNSKNTVYLQMNSLKPEDTAVYYCNADARTKWVQTHTDFISDYDYWGQGTQVTVSS	low polyreactivity
QVQLVESGGGLVQAGGSLRLSCAASGSIFPYYAMGWYRPAPGKERELVAVISRGGGRTYYADSVKGRFTISRDNAKITVYLQMNSLKPEDTAVYYCYAGYPYGGDYWGQGTQVTVSS	high polyreactivity
QVQLVESGAGLVQARGSLRLSCAASGSIFLSYVMGWYRQAPGKERELVAAISKRGGRTYYADSVKGRFTISRDNAKNTVYLQMNSLKPEDTAVYYCNAVTQRESEEGDYWGQGTQVTVSS	high polyreactivity
